The values that follow come from patent publication US20250002601A1 (INNATE PHARMA, published 2025).

As a reminder, the Kd is the concentration at which binding is half-saturated.

Residue numbers refer to the chain shown, from its start. Numbers in names are those of the source.

Sequences and labels used below:
T1: HuCD122-His (human, UniProt P14784 27-239)
T1 construct: Captured on an anti-His CM5 chip; also called interleukin 2 receptor beta; IL2RP
T1 sequence (looked up): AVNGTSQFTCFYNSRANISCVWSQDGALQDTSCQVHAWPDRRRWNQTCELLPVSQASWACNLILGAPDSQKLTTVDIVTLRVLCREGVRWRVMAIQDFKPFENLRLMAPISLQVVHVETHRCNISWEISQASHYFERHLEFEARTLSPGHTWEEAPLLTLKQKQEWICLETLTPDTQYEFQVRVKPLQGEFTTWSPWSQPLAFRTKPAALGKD

B1: CD20-2-T5A-NKCE4-v2 (bispecific antibody, human IgG1, kappa)
chain 1: not shown
chain 2: not shown
chain 3: DIQMTQSPSSLSASVGDRVTITCRASQDISNYLNWYQQKPGKAPKLLIYYTSRLHSGVPSRFSGSGSGTDFTFTISSLQPEDIATYFCQQGNTRPWTFGGGTKVEIKASTKGPSVFPLAPSSKSTSGGTAALGCLVKDYFPEPVTVSWNSGALTSGVHTFPAVLQSSGLYSLSSVVTVPSSSLGTQTYICNVNHKPSNTKVDKRVEPKSCDKTHSGSSSSGSSSSGSSSSTKKTQLQLEHLLLDLQMILNGINNYKNPKLTAMLAKKFYMPKKATELKHLQCLEEELKPLEEVLNLAQSKNFHLRPRDLISNINVIVLELKGSETTFMCEYADETATIVEFLNRWITFCQSIISTLT
B2: CD20-2-T6AB3-NKCE4-v2A (bispecific antibody, human IgG1, kappa)
chain 1: not shown
chain 2: EVQLVESGGGLVQPDRSLRLSCAASGFTFHDYAMHWVRQAPGKGLEWVSTISWNSGTIGYADSVKGRFTISRDNAKNSLYLQMNSLRAEDTALYYCAKDIQYGNYYYGMDVWGQGTTVTVSSASTKGPSVFPLAPSSKSTSGGTAALGCLVKDYFPEPVTVSWNSGALTSGVHTFPAVLQSSGLYSLSSVVTVPSSSLGTQTYICNVNHKPSNTKVDKRVEPKSCDKTHTCPPCPAPEAEGAPSVFLFPPKPKDTLMISRTPEVTCVVVDVSHEDPEVKFNWYVDGVEVHNAKTKPREEQYNSTYRVVSVLTVLHQDWLNGKEYKCKVSNKALPSSIEKTISKAKGQPREPQVYTLPPSREEMTKNQVSLTCLVKGFYPSDIAVEWESNGQPENNYKTTPPVLDSDGSFFLYSKLTVDKSRWQQGNVFSCSVMHEALHNHYTQKSLSLSPGSTGSQVQLVQSGAEVKKPGSSVKVSCKASGYTFSDYVINWVRQAPGQGLEWMGEIYPGSGTNYYNEKFKAKATITADKSTSTAYMELSSLRSEDTAVYYCARRGRYGLYAMDYWGQGTTVTVSSRTVAAPSVFIFPPSDEQLKSGTASVVCLLNNFYPREAKVQWKVDNALQSGNSQESVTEQDSKDSTYSLSSTLTLSKADYEKHKVYACEVTHQGLSSPVTKSFNRGEC
chain 3: B1 chain 3 with A265T, C349A
B3: CD20-1-T5-NKCE4-v3 (bispecific antibody)
light: not shown
heavy: not shown
chain: B1 chain 3
B4: CD20-3-T5-NKCE4-v3 (bispecific antibody)
light: not shown
heavy: not shown
chain: B1 chain 3
B5: CD20-2-T5-NKCE4-v3 (bispecific antibody)
light: not shown
heavy: not shown
chain: B1 chain 3
B6: CD20-4-T5-NKCE4-v3 (bispecific antibody)
light: not shown
heavy: not shown
chain: B1 chain 3

The first test deals with T1, HuCD122-His. The experiment in a line: SPR (Biacore), HuCD122-His captured on anti-His CM5 chip, analyte 31.25 nM to 1 µM, steady-state fit. The method, then:
Briefly, a biacore instrument was used with a CM5 chip comprising an immobilized anti-His antibody. Ligand HuCD122-His was injected at a dilution of […] to be captured on the chip. Proteins CD20-2-T5A-NKCE4-v2, CD20-2-T6AB3-NKCE4-v2A, CD20-2-T13A-NKCE4-v2A was then injected during 120 s with a flow of 10 μL/min, at a concentrations range from 31.25 nM to 1 μM. The interaction between these proteins and HuCD122-His was studied with a dissociation time of 600 s. The chip was then regenerated with NaOH 10 mM at a flow of 40 μL/min during 10 sec.
Date has been analysed under the steady-state model, that seemed to be the most accurate regarding sensograms appearance.
(In SPR one partner is held on a chip, and binding of the other changes the refractive index at the surface.)
In the case of B1, the Kd came to 1810 nM.
Turning to B2, the Kd was 2840 nM. Compared with the last molecule, the Kd is about 1.6-fold higher.

Another test deals with IL-2 receptor on cells of human PBMC (NK cells, CD4 T cells, CD8 T cells, Tregs). The experiment in a line: cell-based or functional assay.
Regarding B3, the “% of pSTAT5+ cells among NK cells” value is approximately 1 log.
B4: the “% of pSTAT5+ cells among NK cells” value is approximately 1 log.
Regarding B5, the “% of pSTAT5+ cells among NK cells” value is approximately 1 log.
Still for that read-out and setting: the same measure for B6: approximately 1 log.
